Target: T1, M. tb ParB with C-terminal 6xHis-tag (M. tuberculosis, UniProt P9WIJ9 1-344)
T1 construct: not shown: 6xHis, C-terminal, kept
T1 sequence: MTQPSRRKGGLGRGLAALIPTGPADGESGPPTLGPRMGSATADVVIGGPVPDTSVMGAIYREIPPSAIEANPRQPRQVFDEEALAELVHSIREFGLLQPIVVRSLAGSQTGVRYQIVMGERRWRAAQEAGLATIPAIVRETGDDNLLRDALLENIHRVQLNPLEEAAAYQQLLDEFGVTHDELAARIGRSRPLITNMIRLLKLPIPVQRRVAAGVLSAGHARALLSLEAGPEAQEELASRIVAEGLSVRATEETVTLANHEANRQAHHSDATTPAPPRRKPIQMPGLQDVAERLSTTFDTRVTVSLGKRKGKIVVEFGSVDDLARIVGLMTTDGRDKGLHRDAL
Test: pull-down; equimolar bait (GST-Rv1708) and prey (His-tagged) incubated O/N at 4 °C in PBS + 0.1 % Triton X-100, then GSH beads 4 h at 4 °C; washed; Western blot with anti-6xHis
Conditions: both partners purified

B1: GST-Rv1708 (natural protein)
chain: MPAGLPGQASVAVRLSCDVPPDARHHEPRPGMTDHPDTGNGIGLTGRPPRAIPDPAPRSSHGPAKVIAMCNQKGGVGKTTSTINLGAALGEYGRRVLLVDMDPQGALSAGLGVPHYELDKTIHNVLVEPRVSIDDVLIHSRVKNMDLVPSNIDLSAAEIQLVNEVGREQTLARALYPVLDRYDYVLIDCQPSLGLLTVNGLACTDGVIIPTECEFFSLRGLALLTDTVDKVRDRLNPKLDISGILITRYDPRTVNSREVMARVVERFGDLVFDTVITRTVRFPETSVAGEPITTWAPKSAGALAYRALARELIDRFGM
notes: also called M. tb minD; not shown: GST, N-terminal, kept
  binding result: binds
